Reference: patent publication US20240174720A1

Columns and labels:
[1] = target: Purified human IgG (injectable IVIG) (human); experiment: DBC after 0.5 M NaOH soaking relative to DBC before soaking; agarose column; human IgG
[2] = target: Purified human IgG (injectable IVIG) (human); experiment: dynamic binding capacity at 10% breakthrough after 24 h in 0.5 M NaOH; ligand on agarose column; human IgG 2.5 mg/ml
[3] = target: Purified human IgG (injectable IVIG) (human); experiment: dynamic binding capacity at 10% breakthrough after 35 h in 0.5 M NaOH; ligand on agarose column; human IgG 2.5 mg/ml
[4] = target: Purified human IgG (injectable IVIG) (human); experiment: dynamic binding capacity at 10% breakthrough; ligand on agarose in 1 ml column; human IgG 2.5 mg/ml; 4 min residence time

Substance | Percentage of remaining DBC [1] | DBC after 24 h soaking [2] | DBC after 35 h soaking [3] | DBC before NaOH soaking [4]
Z domain with S41V mutation Ig-binding affinity ligand (designed binder) | 66.1% | 53 mg/mL | 43 mg/mL | 65 mg/mL
Z domain with S41V/N52V mutations Ig-binding affinity ligand (designed binder) | 76.5% | 56 mg/mL | 49 mg/mL | 64 mg/mL
Z domain with S41A/N52V mutations Ig-binding affinity ligand (designed binder) | 81.5% | 59 mg/mL | 53 mg/mL | 65 mg/mL
Z domain with N52V mutation Ig-binding affinity ligand (designed binder) | 65.1% | 52 mg/mL | 41 mg/mL | 63 mg/mL
Z domain with N52L mutation Ig-binding affinity ligand (designed binder) | 67.2% | 47 mg/mL | 39 mg/mL | 58 mg/mL
Z domain with S41A/N52L mutations Ig-binding affinity ligand (designed binder) | 71.2% | 50 mg/mL | 42 mg/mL | 59 mg/mL
Z domain with S41A mutation Ig-binding affinity ligand (designed binder) | 70.9% | 52 mg/mL | 44 mg/mL | 62 mg/mL
